Test results from patent US20120065254.
pIC50, pKd: −log10 of the molar value.

What was measured:
[1] = target: human complement C5 in serum (Homo sapiens) (UniProt P01031+P01031); assay: cell_activity; conditions: 2'-F pyrimidines and 2'-OMe purines as printed, CGCU unmodified; complement-dependent sheep erythrocyte hemolysis
[2] = target: T1, human C5a (L-form) (Homo sapiens) (UniProt P01031); assay: SPR; conditions: L-RNA [all (L-RNA)]; 37 C, Mg, Ca
T1 sequence: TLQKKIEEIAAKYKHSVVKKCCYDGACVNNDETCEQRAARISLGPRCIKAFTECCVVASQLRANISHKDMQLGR

Sequence of human complement C5 in serum (Homo sapiens) (P01031 19-673 T389I, one chain of several): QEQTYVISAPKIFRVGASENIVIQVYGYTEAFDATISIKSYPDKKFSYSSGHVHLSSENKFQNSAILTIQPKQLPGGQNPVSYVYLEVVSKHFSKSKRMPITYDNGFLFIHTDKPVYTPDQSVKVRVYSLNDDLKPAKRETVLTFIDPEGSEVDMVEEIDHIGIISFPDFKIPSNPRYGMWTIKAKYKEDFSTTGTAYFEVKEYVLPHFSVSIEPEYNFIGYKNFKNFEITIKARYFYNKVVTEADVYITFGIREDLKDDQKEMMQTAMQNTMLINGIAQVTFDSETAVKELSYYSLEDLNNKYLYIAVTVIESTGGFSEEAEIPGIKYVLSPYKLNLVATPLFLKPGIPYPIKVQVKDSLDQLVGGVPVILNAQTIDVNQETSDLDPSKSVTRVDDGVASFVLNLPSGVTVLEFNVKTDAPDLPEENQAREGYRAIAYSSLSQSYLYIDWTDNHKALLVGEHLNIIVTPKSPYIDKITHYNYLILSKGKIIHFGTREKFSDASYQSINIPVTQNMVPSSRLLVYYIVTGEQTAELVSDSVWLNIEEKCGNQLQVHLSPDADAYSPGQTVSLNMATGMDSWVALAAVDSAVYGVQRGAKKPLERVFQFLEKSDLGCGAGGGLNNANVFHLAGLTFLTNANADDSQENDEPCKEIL

Row | Substance | pIC50 [1] | pKd [2]
1 | C5C6 aptamer | 6.00 | 
2 | UGCUGGACAGGACCAAGGUAAGGGCGGACCGAAAAACCUAGCAGCA [182-A5-002] |  | 9.52
